We go through 17 variants from the supplement of paper PMC7125110.

± gives the standard error. For some of these results: This sample holds only a part of the variants without activity. Some results are limits rather than exact numbers.

B1: glmS ribozyme (parent)
chain: AUAAAAGCGCCAGAACUACAGAAAUGUAGUUGACGAGGAGGAGGUUUAUCGAAUUUUCGGCGGAUGCCUCCAAA

What all share (details): with glucosamine-6-phosphate
Variants of B1 are the subject of data set [1]. The data set is described as follows: kcat; higher = faster cleavage; RNA array. The essentials:
(§1)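 A hybridised Cy3 probe tracked barcoded ribozyme variants, transcribed in situ by E. coli RNA polymerase on sequenced MiSeq chips, at 37 °C. The variants received 40 μM to 10 mM glucosamine-6-phosphate in HEPES/KCl/Mg(OAc)2 buffer. kobs came from decay fits and kcat and KM from weighted Michaelis–Menten fits.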

The variants in data set [2] derive from B1. Briefly: self-cleavage kobs at 160 uM GlcN6P; higher = faster cleavage; RNA array. The essentials: as §1
In data set [3] the parent is B1. Briefly: self-cleavage kobs at 640 uM GlcN6P; higher = faster cleavage; RNA array. In short, it runs like this: as §1
Data set [4] covers variants of B1. Briefly: self-cleavage kobs at 2500 uM GlcN6P; higher = faster cleavage; RNA array. The essentials:
as §1

The variants in data set [5] derive from B1. The data set is described as follows: self-cleavage kobs at 10000 uM GlcN6P; higher = faster cleavage; RNA array. The essentials: as §1
In data set [6] the parent is B1. Briefly: self-cleavage kobs at 40 uM GlcN6P; higher = faster cleavage; RNA array. In short, it runs like this: as §1
In data set [7] the parent is B1. Briefly: KM; higher = weaker cofactor use; RNA array. The essentials: as §1

Consider G29U U31C, for which the kcat with glucosamine-6-phosphate [1] was determined as 0.000449 ± 0.00016 s⁻¹. The “self-cleavage kobs at 160 uM GlcN6P” value with glucosamine-6-phosphate [2] worked out at 4.01e-05 ± 1.3e-05 s⁻¹. The “self-cleavage kobs at 640 uM GlcN6P” value with glucosamine-6-phosphate [3] was found to be 9.18e-05 ± 8.9e-06 s⁻¹. Moreover, in the data set with glucosamine-6-phosphate [4], the “self-cleavage kobs at 2500 uM GlcN6P” value was 0.00015 ± 1.8e-05 s⁻¹. The “self-cleavage kobs at 10000 uM GlcN6P” value with glucosamine-6-phosphate [5] was determined as 0.000407 ± 3.7e-05 s⁻¹.

U47C U69A: in the data set with glucosamine-6-phosphate [1], the kcat came to 0.000275 ± 6.6e-05 s⁻¹. Besides, in the data set with glucosamine-6-phosphate [6], the “self-cleavage kobs at 40 uM GlcN6P” value turned out to be 2.9e-05 ± 1.4e-05 s⁻¹. Besides, the “self-cleavage kobs at 640 uM GlcN6P” value with glucosamine-6-phosphate [3] was found to be 5.97e-05 ± 2.2e-05 s⁻¹. Also, the “self-cleavage kobs at 2500 uM GlcN6P” value with glucosamine-6-phosphate [4] came to 0.000178 ± 5.8e-05 s⁻¹. In addition, the “self-cleavage kobs at 10000 uM GlcN6P” value with glucosamine-6-phosphate [5] turned out to be 0.00023 ± 3.1e-05 s⁻¹.

Regarding A14U G43A, in the data set with glucosamine-6-phosphate [1], the kcat is 4.42e-05 ± 1.9e-05 s⁻¹.

Take A53G C58G: in the data set with glucosamine-6-phosphate [1], the kcat was 0.000112 ± 2.4e-06 s⁻¹. Moreover, the KM with glucosamine-6-phosphate [7] is 1580 ± 120 µM. The “self-cleavage kobs at 640 uM GlcN6P” value with glucosamine-6-phosphate [3] came to 3.28e-05 ± 1.1e-05 s⁻¹. In addition, the “self-cleavage kobs at 2500 uM GlcN6P” value in the data set with glucosamine-6-phosphate [4] was determined as 6.79e-05 ± 1.2e-05 s⁻¹. Further, the “self-cleavage kobs at 10000 uM GlcN6P” value with glucosamine-6-phosphate [5] is 9.67e-05 ± 9.9e-06 s⁻¹.

As to G37A U45A, in the data set with glucosamine-6-phosphate [1], the kcat was 0.00537 ± 0.00043 s⁻¹. Besides, the KM with glucosamine-6-phosphate [7] was 1760 ± 210 µM. In the data set with glucosamine-6-phosphate [6], the “self-cleavage kobs at 40 uM GlcN6P” value was 0.000126 ± 1.4e-05 s⁻¹. Further, the “self-cleavage kobs at 160 uM GlcN6P” value in the data set with glucosamine-6-phosphate [2] came out at 0.000452 ± 8.9e-05 s⁻¹. For the same variant, the “self-cleavage kobs at 640 uM GlcN6P” value with glucosamine-6-phosphate [3] was 0.00131 ± 0.00021 s⁻¹. Also, the “self-cleavage kobs at 2500 uM GlcN6P” value in the data set with glucosamine-6-phosphate [4] was 0.0027 ± 0.0006 s⁻¹. Further, the “self-cleavage kobs at 10000 uM GlcN6P” value with glucosamine-6-phosphate [5] is 0.00477 ± 0.00049 s⁻¹.

With A36C C70U, in the data set with glucosamine-6-phosphate [1], the kcat is less than 1e-05 s⁻¹. In the data set with glucosamine-6-phosphate [6], the “self-cleavage kobs at 40 uM GlcN6P” value was less than 1e-05 s⁻¹.

For A36G C70A, in the data set with glucosamine-6-phosphate [1], the kcat was 1.58e-05 ± 4.3e-06 s⁻¹.

Consider A14U U30C, for which the kcat with glucosamine-6-phosphate [1] is 2.9e-05 ± 1.4e-05 s⁻¹. Besides, the “self-cleavage kobs at 160 uM GlcN6P” value with glucosamine-6-phosphate [2] was less than 1e-05 s⁻¹. The “self-cleavage kobs at 2500 uM GlcN6P” value with glucosamine-6-phosphate [4] came to 4.54e-05 ± 1.8e-05 s⁻¹.

As to C11U U54G, in the data set with glucosamine-6-phosphate [1], the kcat was determined as 0.00114 ± 0.00053 s⁻¹. Also, in the data set with glucosamine-6-phosphate [6], the “self-cleavage kobs at 40 uM GlcN6P” value was 5.3e-05 ± 1.1e-05 s⁻¹. In addition, in the data set with glucosamine-6-phosphate [2], the “self-cleavage kobs at 160 uM GlcN6P” value came to 0.000153 ± 2.1e-05 s⁻¹. For the same variant, in the data set with glucosamine-6-phosphate [3], the “self-cleavage kobs at 640 uM GlcN6P” value is 0.000277 ± 3.9e-05 s⁻¹. Also, the “self-cleavage kobs at 2500 uM GlcN6P” value with glucosamine-6-phosphate [4] came to 0.000642 ± 9.5e-05 s⁻¹. The “self-cleavage kobs at 10000 uM GlcN6P” value with glucosamine-6-phosphate [5] amounted to 0.00164 ± 0.00025 s⁻¹.

Regarding U45A A48G, the kcat with glucosamine-6-phosphate [1] was 0.000299 ± 7.2e-05 s⁻¹. Moreover, the “self-cleavage kobs at 640 uM GlcN6P” value with glucosamine-6-phosphate [3] came to 8.14e-05 ± 1.3e-05 s⁻¹. Besides, the “self-cleavage kobs at 2500 uM GlcN6P” value with glucosamine-6-phosphate [4] stood at 0.00033 ± 4.4e-05 s⁻¹. The “self-cleavage kobs at 10000 uM GlcN6P” value with glucosamine-6-phosphate [5] is 0.00024 ± 2.6e-05 s⁻¹.

With A14C U45A, in the data set with glucosamine-6-phosphate [1], the kcat stood at 0.00955 ± 0.0035 s⁻¹. Besides, the “self-cleavage kobs at 40 uM GlcN6P” value with glucosamine-6-phosphate [6] came to 0.000245 ± 3.9e-05 s⁻¹. The “self-cleavage kobs at 160 uM GlcN6P” value in the data set with glucosamine-6-phosphate [2] is 0.000909 ± 0.00039 s⁻¹. Also, in the data set with glucosamine-6-phosphate [3], the “self-cleavage kobs at 640 uM GlcN6P” value came out at 0.00207 ± 0.00049 s⁻¹. For the same variant, the “self-cleavage kobs at 2500 uM GlcN6P” value in the data set with glucosamine-6-phosphate [4] was determined as 0.00469 ± 0.00097 s⁻¹. In addition, the “self-cleavage kobs at 10000 uM GlcN6P” value with glucosamine-6-phosphate [5] was determined as 0.0131 ± 0.0028 s⁻¹.

Regarding A6G U54C, the kcat with glucosamine-6-phosphate [1] stood at 0.000547 ± 9.2e-05 s⁻¹. Also, the KM with glucosamine-6-phosphate [7] was 2590 ± 710 µM. Further, the “self-cleavage kobs at 160 uM GlcN6P” value with glucosamine-6-phosphate [2] is 4.65e-05 ± 1.2e-05 s⁻¹. In the data set with glucosamine-6-phosphate [3], the “self-cleavage kobs at 640 uM GlcN6P” value is 0.0001 ± 1.3e-05 s⁻¹. Also, in the data set with glucosamine-6-phosphate [4], the “self-cleavage kobs at 2500 uM GlcN6P” value was 0.000351 ± 7.7e-05 s⁻¹. For the same variant, the “self-cleavage kobs at 10000 uM GlcN6P” value in the data set with glucosamine-6-phosphate [5] was determined as 0.000427 ± 5.3e-05 s⁻¹.

Consider G29U U65A, for which the kcat with glucosamine-6-phosphate [1] was 0.000516 ± 4.5e-05 s⁻¹. In addition, in the data set with glucosamine-6-phosphate [7], the KM was 2110 ± 340 µM. The “self-cleavage kobs at 160 uM GlcN6P” value with glucosamine-6-phosphate [2] was determined as 3.8e-05 ± 1.4e-05 s⁻¹. Moreover, the “self-cleavage kobs at 640 uM GlcN6P” value in the data set with glucosamine-6-phosphate [3] is 0.000114 ± 1.9e-05 s⁻¹. Also, in the data set with glucosamine-6-phosphate [4], the “self-cleavage kobs at 2500 uM GlcN6P” value is 0.000323 ± 5.9e-05 s⁻¹. In addition, in the data set with glucosamine-6-phosphate [5], the “self-cleavage kobs at 10000 uM GlcN6P” value turned out to be 0.000411 ± 6e-05 s⁻¹.

U55C G60A: the kcat with glucosamine-6-phosphate [1] worked out at 1.48e-05 ± 1.8e-06 s⁻¹. In addition, the “self-cleavage kobs at 40 uM GlcN6P” value with glucosamine-6-phosphate [6] is less than 1e-05 s⁻¹.

For the variant U31C G59U C68A, in the data set with glucosamine-6-phosphate [1], the kcat worked out at 3.76e-05 ± 1.6e-05 s⁻¹.

On to C50G C61A, for which the kcat with glucosamine-6-phosphate [1] was 0.000122 ± 1.7e-05 s⁻¹. The “self-cleavage kobs at 40 uM GlcN6P” value with glucosamine-6-phosphate [6] was 9.57e-05 ± 9.4e-06 s⁻¹. In the data set with glucosamine-6-phosphate [2], the “self-cleavage kobs at 160 uM GlcN6P” value is 0.00018 ± 2.4e-05 s⁻¹. In the data set with glucosamine-6-phosphate [3], the “self-cleavage kobs at 640 uM GlcN6P” value stood at 0.000166 ± 1.7e-05 s⁻¹. For the same variant, the “self-cleavage kobs at 2500 uM GlcN6P” value in the data set with glucosamine-6-phosphate [4] stood at 9.96e-05 ± 1.4e-05 s⁻¹. The “self-cleavage kobs at 10000 uM GlcN6P” value with glucosamine-6-phosphate [5] stood at 0.000113 ± 9e-06 s⁻¹.

For the variant A12C A39C, the kcat with glucosamine-6-phosphate [1] stood at 0.000611 ± 4.3e-05 s⁻¹. Besides, the KM with glucosamine-6-phosphate [7] was determined as 2060 ± 260 µM. Besides, the “self-cleavage kobs at 40 uM GlcN6P” value with glucosamine-6-phosphate [6] worked out at 1.91e-05 ± 9.4e-06 s⁻¹. For the same variant, the “self-cleavage kobs at 160 uM GlcN6P” value with glucosamine-6-phosphate [2] is 3.75e-05 ± 7.9e-06 s⁻¹. In addition, the “self-cleavage kobs at 640 uM GlcN6P” value with glucosamine-6-phosphate [3] came to 0.000149 ± 1.2e-05 s⁻¹. Moreover, the “self-cleavage kobs at 2500 uM GlcN6P” value in the data set with glucosamine-6-phosphate [4] stood at 0.000343 ± 3e-05 s⁻¹. In the data set with glucosamine-6-phosphate [5], the “self-cleavage kobs at 10000 uM GlcN6P” value is 0.000499 ± 4.2e-05 s⁻¹.
